Tests used:
Atg7 V285D = target: T1, Atg7 V285D (S. cerevisiae, UniProt P38862 1-630, V285D); assay: cross-linking
T1 sequence (looked up): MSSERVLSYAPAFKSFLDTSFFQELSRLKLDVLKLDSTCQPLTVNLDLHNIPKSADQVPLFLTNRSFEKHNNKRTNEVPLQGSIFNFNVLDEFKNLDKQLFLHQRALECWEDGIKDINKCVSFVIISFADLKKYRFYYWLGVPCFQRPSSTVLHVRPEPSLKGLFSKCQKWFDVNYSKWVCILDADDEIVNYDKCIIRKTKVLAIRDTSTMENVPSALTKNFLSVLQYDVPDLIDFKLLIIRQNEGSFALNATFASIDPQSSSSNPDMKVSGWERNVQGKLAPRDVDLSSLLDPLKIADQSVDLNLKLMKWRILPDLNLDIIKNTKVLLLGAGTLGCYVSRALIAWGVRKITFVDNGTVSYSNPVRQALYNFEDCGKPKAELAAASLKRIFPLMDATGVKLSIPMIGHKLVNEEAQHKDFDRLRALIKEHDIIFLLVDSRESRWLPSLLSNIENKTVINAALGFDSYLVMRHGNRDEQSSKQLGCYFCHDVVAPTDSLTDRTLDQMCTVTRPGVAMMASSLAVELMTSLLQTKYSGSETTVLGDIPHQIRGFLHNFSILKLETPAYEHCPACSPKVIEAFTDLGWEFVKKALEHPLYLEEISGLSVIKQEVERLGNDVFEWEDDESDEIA

[1] = target: T2, Atg7 with residues 290–294 deleted (S. cerevisiae, UniProt P38862 1-630, deletion of residues 290–294); assay: cross-linking
T2 sequence (looked up): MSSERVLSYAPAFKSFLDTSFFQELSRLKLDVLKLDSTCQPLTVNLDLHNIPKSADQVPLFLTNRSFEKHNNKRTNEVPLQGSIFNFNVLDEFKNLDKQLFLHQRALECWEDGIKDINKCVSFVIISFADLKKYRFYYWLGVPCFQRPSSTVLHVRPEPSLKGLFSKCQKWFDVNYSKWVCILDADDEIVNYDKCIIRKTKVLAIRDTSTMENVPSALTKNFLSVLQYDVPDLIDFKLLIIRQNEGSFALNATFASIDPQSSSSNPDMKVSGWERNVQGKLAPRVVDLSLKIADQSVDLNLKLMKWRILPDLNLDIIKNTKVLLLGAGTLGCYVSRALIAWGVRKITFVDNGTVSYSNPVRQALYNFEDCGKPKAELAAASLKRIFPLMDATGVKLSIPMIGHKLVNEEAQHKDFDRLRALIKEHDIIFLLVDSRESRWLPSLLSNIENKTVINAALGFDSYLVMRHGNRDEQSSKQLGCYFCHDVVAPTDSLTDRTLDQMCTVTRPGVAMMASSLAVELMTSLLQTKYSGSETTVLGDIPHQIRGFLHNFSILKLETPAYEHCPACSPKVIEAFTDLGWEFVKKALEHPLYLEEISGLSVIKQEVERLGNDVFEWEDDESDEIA

B1: Atg3(C41A C76A C83A) (enzyme, S. cerevisiae)
chain: MIRSTLSSWREYLTPITHKSTFLTTGQITPEEFVQAGDYLAHMFPTWKWNEESSDISYRDFLPKNKQFLIIRKVPADKRAEQAVEVEGPDVIMKGFAEDGDEDDVLEYIGSETEHVQSTPAGGTKDSSIDDIDELIQDMEIKEEDENDDTEEFNAKGGLAKDMAQERYYDLYIAYSTSYRVPKMYIVGFNSNGSPLSPEQMFEDISADYRTKTATIEKLPFYKNSVLSVSIHPCKHANVMKILLDKVRVVRQRRRKELQEEQELDGVGDWEDLQDDIDDSLRVDQYLIVFLKFITSVTPSIQHDYTMEGW
modifications: Cys234 reacted with bismaleimidoethane (BMOE)
binding result (Atg7 V285D): binds
binding result [1]: binds

From paper PMC3515690 (Nature structural & molecular biology, 2012)
